Assay results from patent US20040048311A1.

Experiments:
[1] = target: 38C13 IgM; assay: antibody microarray on FAST slide, purified 38C13 IgM, detection with goat anti-mouse IgM HRP, chemiluminescence
[2] = target: 38C13 IgM; assay: antibody microarray on FAST slide, 38C13 cell extract at 1:2000 dilution, detection with goat anti-mouse IgM HRP, chemiluminescence

- lowest IgM concentration giving signal [1]: 0.1 µg/mL
- lowest spotted S1C5 concentration giving signal [1]: 25 µg/mL
- lowest printed S1C5 concentration giving signal [2]: 50 µg/mL
Substance: S1C5 anti-idiotype monoclonal antibody
